Assay results from patent publication US20220056112A1 (YUROGEN BIOSYSTEMS, published 2022).
Residue numbers refer to the chain shown, from its start.

B1: rabbit monoclonal antibody 1G7 against the SARS-CoV-2 nucleocapsid protein (antibody, V domains shown)
VH: QQQVVESGGGLVKPGASLTLTCEASGFSFSSGYDMCWVRQAPGKGLEWIACIYPGSSGNTYYASWAKGRFTISKTSSTTVTLQMTSLTAADTATYFCARTYASSSGDYIPYFFNLWGPGTLVTVSS
VL: DIVMTQTPASVEAAVGGTVTIKCQASENIYSGLAWYQQKPGQPPKLLIYDASDLASGVPSRFKGSGSGTEYTLTISDLECADAATYYCQNYYYSSRGFNTFGGGTEVVVKG
B2: rabbit monoclonal antibody 5B12 against the SARS-CoV-2 nucleocapsid protein (antibody, V domains shown)
VH: QSLEESGGDLVQPEGTLTLTCTASGFSFFYDYYMCWVRQAPGKGLEWIGCIYGASGDTYYASWAKGRFTISKTSSTTVTLRMTSLTAADTATYFCARDVDTGSGIDFELWGPGTLVTVSS
VL: AYDMTQTPASVEVAVGGTVTIKCQASQSIGSYLSWYQQKPGQPPKLLIYSTSTLASGVPSRFKGSGSGTQFTLTISGVECADAATYYCQQGDTNHNIDNIFGGGTEVVVEG
B3: rabbit monoclonal antibody 5B4 against the SARS-CoV-2 nucleocapsid protein (antibody, V domains shown)
VH: QSLEESGGGLVKPGGTLTLTCTVSGLSLSTNAPNWVRQAPGKGLEWIGTIFIDDEDTYYASWAKGRFTISKTSSTTITLKMTSLTAADTATYFCARNSDLWDPGTLVVVSS
VL: AQVLTQTPSPVSAAVGGTVTINCQASQSVYNNNYLSWFQQKPGQPPKLLIYKASTLASGVSSRFKGSGSGTQFTLTISDVQCDDAATYFCLGSYDCRSANCIVFGGGTEVVVKG
B4: rabbit monoclonal antibody 11B12 against the SARS-CoV-2 nucleocapsid protein (antibody, V domains shown)
VH: QQQLEESGGGLVKPGGTLTLTCTVSGLSLSSNTLNWVRQAPGKGLEWIGTIFIDDEDTYYASWAKGRFTISKTSSTTITLKMTSLTAADTATYFCARSSDLWDPGTLVVVSS
VL: B3 VL with P10S, N31K, K52Q, T55K
B5: rabbit monoclonal antibody 6H7 against the SARS-CoV-2 nucleocapsid protein (antibody, V domains shown)
VH: QQQLEESGGGLVQPGGSLTLSCKASGFNVNSDCYMCWVRQAPGKGLEWIGCIDTVSGSTYYATWAKGRFTISKTSSTTVTLQMTSLTAADTATYFCARDFLYNVNNAGDIMDLWGPGTLVTVSL
VL: AQVLTQTPSSVSAAVGGTVTINCQSSYNVYNNNYLAWYQQKPGQPPKLLIYTTSTLASGVPSRFSGSGSGTQFTLTISDLECDDAAIYYCQGYYRGPVNDFGGGTEVVVEG
B6: rabbit monoclonal antibody 3A7 against the SARS-CoV-2 nucleocapsid protein (antibody, V domains shown)
VH: QEQLEESGGGLVQPEGSLTLTCTASGFSLSDSAYMCWVRQAPGKGLEWIACIDAGVSGSTYYASWVNGRFTISKTSSTTVTLQMTSLTVADTATYFCARDFLYTPNNAGDIMDLWGPGTLVTVSL
VL: B5 VL with Y27H, N28T, N31S, A36S, T52S, T53A, T55S, S65K, Q91H, Y94W
B7: rabbit monoclonal antibody 1F8 against the SARS-CoV-2 nucleocapsid protein (antibody, V domains shown)
VH: QEHLEESGGGLVKPGASLTLTCTASGFSLSNNYWICWVRQAPGKGLEWIACIYTGRDYTYYTSWAKGRFTISKTSSTTVTLQLNSLTAADTATYFCARNNTDYGDYWDLWGPGTLVTVSS
VL: AQVLTQTASPVSVAVGDTVTINCQASQSVYKNNYLAWYQLKPGQPPKLLIYWGTKLPSGVPSRFKGSGSGTHFTLTISDVQCDDAATYYCLGSYDCTIAECNVFGGGTEVVVEG

Columns and labels:
[1] = molecular target: T1, nucleocapsid protein of SARS-CoV-2 (SARS-CoV-2, UniProt P0DTC9 1-419)
[2] = molecular target: T1, nucleocapsid protein of SARS-CoV-2; remark: listed apart in the source

Row | Binder | Kd [1] [nM] | koff [1] [s⁻¹] | kon [1] [M⁻¹ s⁻¹] | EC50 (read off the curve) [2] [ng/mL]
1 | B1 | 8.14 | 9.87e-05 | 12100 | ~10
2 | B2 | 1.89 | 8.29e-05 | 44000 | –
3 | B3 | 0.717 | 0.000261 | 364000 | –
4 | B4 | 0.0565 | 2.63e-05 | 465000 | –
5 | B5 | 0.674 | 0.000238 | 354000 | –
6 | B6 | 1.22 | 0.000272 | 224000 | –
7 | B7 | 2.29 | 0.000206 | 90200 | –
